Measurements published in the supplement of paper PMC7877785.
± gives the uncertainty stated by the source.

Assay: self-splicing fitness, log relative to wild type (ln ratio); higher = more splicing; Tetrahymena group I intron in knt gene, E. coli kanamycin selection, DiMSum; sequences stand for … in CUCUCU…GGAGGGAAAAGUUAUCAGGCAUGCACCUGGUAGCUAGUCUUUAAACCAAUAGAUUGCAUCGGUUUAAAAGGCAAGACCGUCAAAUUGCGGGAAAGGGGUCAACAGCCGUUCAGUACCAAGUCUCAGGGGAAACUUUGAGAUGGCCUUGCAAAGGGUAUGGUAAUAAGCUGACGGACAUGGUCCUAACCACGCAGCCAAGUCCUAAGUCAACAGAUCUUCUGUUGAUAUGGAUGCAGUUCACAGACUAAAUGUCGGUCGGGGAAGAUGUAUUCUUCUCAUAAGAUAUAGUCGGACCUCUCCUUAAUGGGAGCUAGCGGAUGAAGUGAUGCAACACUGGAGCCGCUGGGAACUAAUUUGUAUGCGAAAGUAUAUUGAUUAGUUUUGGAGUACUCGUGGUCG
Method in brief: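 Library with all eight P1ex-region intron nucleotides randomised, intron inside the knt kanamycin-resistance gene on pET-22b(+), in E. coli BL21(DE3). Cells grew overnight at 37°C or 30°C on LB agar with or without 25 μg/mL kanamycin (plus 100 μg/mL carbenicillin, 50 μM IPTG, 0.2% rhamnose), in six replicate transformations. Pooled colonies were amplicon-sequenced on Illumina HiSeq 2500. DiMSum fitness is the error-weighted combination of wild-type-normalised replicate fold changes, kanamycin versus none.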

Sequence	self-splicing fitness (ln) (30 °C)	self-splicing fitness (ln) (37 °C)
ACUUAGCAAUAUUACGUGGA	-2.47 ± 0.13	-2.7 ± 0.16
AGAAAGCAAUAUUACGAAAA	-1.74 ± 0.13	-0.577 ± 0.15
AGAAAGCAAUAUUACGAACG	-0.489 ± 0.084	-0.004 ± 0.12
AGAAAGCAAUAUUACGAAUU	-0.791 ± 0.089	-1.32 ± 0.11
AGAAAGCAAUAUUACGACAA	-0.576 ± 0.087	0.0351 ± 0.089
AGAAAGCAAUAUUACGACAG	-2.36 ± 0.11	-0.954 ± 0.11
AGAAAGCAAUAUUACGACUC	-1.53 ± 0.21	-0.214 ± 0.2
AGAAAGCAAUAUUACGAUUG	-3.82 ± 0.27	-1.93 ± 0.21
AGAAAGCAAUAUUACGCAUG	-1.66 ± 0.1	-0.374 ± 0.1
AGAAAGCAAUAUUACGCCCA	0.247 ± 0.12	0.167 ± 0.2
AGAAAGCAAUAUUACGCCCG	-0.679 ± 0.19	-0.0334 ± 0.19
AGAAAGCAAUAUUACGCCGA	-1.29 ± 0.15	-0.795 ± 0.15
AGAAAGCAAUAUUACGCUAC	-3.25 ± 0.39	–
AGAAAGCAAUAUUACGGAGA	-3 ± 0.22	-2.79 ± 0.23
AGAAAGCAAUAUUACGGCAA	0.0585 ± 0.1	-0.187 ± 0.12
AGAAAGCAAUAUUACGGCCU	0.484 ± 0.11	0.212 ± 0.12
AGAAAGCAAUAUUACGGCUG	-0.141 ± 0.11	-0.414 ± 0.16
AGAAAGCAAUAUUACGGGAG	-2.56 ± 0.097	-1.97 ± 0.12
AGAAAGCAAUAUUACGGGCA	-0.6 ± 0.14	-0.0746 ± 0.12
AGAAAGCAAUAUUACGGGUA	-1.32 ± 0.092	-1.01 ± 0.095
AGAAAGCAAUAUUACGGUGA	-0.65 ± 0.12	-0.655 ± 0.14
AGAAAGCAAUAUUACGGUGC	-2.39 ± 0.15	-2.6 ± 0.31
AGAAAGCAAUAUUACGUAGG	-2.89 ± 0.14	-2.16 ± 0.15
AGAAAGCAAUAUUACGUAUA	-2.13 ± 0.12	-1.66 ± 0.13
AGAAAGCAAUAUUACGUCCU	-0.0571 ± 0.065	0.432 ± 0.089

Sequence	self-splicing fitness (ln) (30 °C)	self-splicing fitness (ln) (37 °C)
AGAAAGCAAUAUUACGUCGG	-1.37 ± 0.088	-1.04 ± 0.11
AGAAAGCAAUAUUACGUGAG	-1.39 ± 0.065	-0.952 ± 0.099
AGAAAGCAAUAUUACGUGCU	-0.713 ± 0.063	-1.28 ± 0.092
AGAAAGCAAUAUUACGUGUC	-4.33 ± 0.31	-1.67 ± 0.18
AGAAAGCAAUAUUACGUUAA	-2.23 ± 0.14	-1.44 ± 0.17
AGAAAGCAAUAUUACGUUAU	-2.29 ± 0.099	-1.58 ± 0.13
AGACAGCAAUAUUACGAACU	-0.675 ± 0.076	0.326 ± 0.096
AGACAGCAAUAUUACGACAG	-3.42 ± 0.14	-0.41 ± 0.12
AGACAGCAAUAUUACGACCC	-0.868 ± 0.29	-0.564 ± 0.3
AGACAGCAAUAUUACGACUU	-0.384 ± 0.074	0.347 ± 0.099
AGACAGCAAUAUUACGAGCU	-1.22 ± 0.085	-1.15 ± 0.11
AGACAGCAAUAUUACGAGUG	-4.11 ± 0.16	-1.9 ± 0.092
AGACAGCAAUAUUACGAUAC	-2.64 ± 0.27	-1.79 ± 0.25
AGACAGCAAUAUUACGCCGC	–	-1.62 ± 0.38
AGACAGCAAUAUUACGCCUC	-4.48 ± 0.36	-2.08 ± 0.21
AGACAGCAAUAUUACGCUCG	-0.153 ± 0.076	0.136 ± 0.089
AGACAGCAAUAUUACGGAGA	-3.65 ± 0.18	-2.55 ± 0.29
AGACAGCAAUAUUACGGAUC	-3.16 ± 0.2	-0.56 ± 0.17
AGACAGCAAUAUUACGGCCU	-1.2 ± 0.085	-0.234 ± 0.09
AGACAGCAAUAUUACGGGCC	-1.45 ± 0.1	-1.21 ± 0.11
AGACAGCAAUAUUACGGUAG	-3.97 ± 0.22	-0.604 ± 0.092
AGACAGCAAUAUUACGGUGC	-2.82 ± 0.18	-1.89 ± 0.18
AGACAGCAAUAUUACGUACU	-0.834 ± 0.062	-0.36 ± 0.086
AGACAGCAAUAUUACGUAGC	-2.07 ± 0.19	-2.14 ± 0.23
AGACAGCAAUAUUACGUAUC	-3.63 ± 0.16	-1.52 ± 0.15

Sequence	self-splicing fitness (ln) (30 °C)	self-splicing fitness (ln) (37 °C)
AGACAGCAAUAUUACGUCAC	-3 ± 0.23	-3.41 ± 0.19
AGACAGCAAUAUUACGUGAA	-2.03 ± 0.14	-0.982 ± 0.15
AGACAGCAAUAUUACGUGGA	-3.96 ± 0.24	-2.37 ± 0.2
AGACAGCAAUAUUACGUGGU	-3.66 ± 0.14	-2.13 ± 0.12
AGACAGCAAUAUUACGUUGG	-1.95 ± 0.094	-1.99 ± 0.14
AGACAGCAAUAUUACGUUUC	-4.68 ± 0.36	-3.7 ± 0.42
AGAGAGCAAUAUUACGAAAG	-4.41 ± 0.27	-2.42 ± 0.22
AGAGAGCAAUAUUACGACAC	–	-1.4 ± 0.26
AGAGAGCAAUAUUACGAUAA	–	-2.71 ± 0.28
AGAGAGCAAUAUUACGCAAC	–	-1.44 ± 0.2
AGAGAGCAAUAUUACGCCAA	-2.71 ± 0.2	-3.06 ± 0.43
AGAGAGCAAUAUUACGCCAG	-3.51 ± 0.35	-2.94 ± 0.38
AGAGAGCAAUAUUACGCGUG	-3.83 ± 0.36	-1.44 ± 0.18
AGAGAGCAAUAUUACGGACG	-2.64 ± 0.3	-1.61 ± 0.44
AGAGAGCAAUAUUACGGGGA	-2.46 ± 0.25	-1.84 ± 0.28
AGAGAGCAAUAUUACGUAAA	-3.76 ± 0.31	-3.12 ± 0.31
AGAGAGCAAUAUUACGUCAC	–	-0.851 ± 0.42
AGAGAGCAAUAUUACGUCUC	-2.95 ± 0.43	-3.37 ± 0.47
AGAGAGCAAUAUUACGUGAC	–	-1.43 ± 0.42
AGAUAGCAAUAUUACGACAU	-0.0342 ± 0.013	0.0833 ± 0.033
AGAUAGCAAUAUUACGACGU	0.446 ± 0.097	0.203 ± 0.098
AGAUAGCAAUAUUACGAGCG	-0.464 ± 0.12	-1.08 ± 0.15
AGAUAGCAAUAUUACGCAUA	-2.23 ± 0.16	-0.55 ± 0.18
AGAUAGCAAUAUUACGGCAG	-0.945 ± 0.12	-0.735 ± 0.14
AGAUAGCAAUAUUACGGGGC	-2.65 ± 0.2	-3.29 ± 0.37

Sequence	self-splicing fitness (ln) (30 °C)	self-splicing fitness (ln) (37 °C)
AGAUAGCAAUAUUACGGUUG	-3.03 ± 0.17	-2.57 ± 0.29
AGAUAGCAAUAUUACGUAGG	-3.49 ± 0.17	-1.41 ± 0.18
AGAUAGCAAUAUUACGUCAA	-1.15 ± 0.09	-1.03 ± 0.1
AGAUAGCAAUAUUACGUCGG	-1.52 ± 0.14	-1.26 ± 0.16
AGAUAGCAAUAUUACGUGAG	-1.89 ± 0.072	-0.685 ± 0.08
AGAUAGCAAUAUUACGUGGA	-3.21 ± 0.25	-2.37 ± 0.28
AGAUAGCAAUAUUACGUGUG	-2.48 ± 0.097	-0.626 ± 0.098
AGCAAGCAAUAUUACGAAGU	-3.42 ± 0.27	-1.58 ± 0.25
AGCAAGCAAUAUUACGACAA	-1.54 ± 0.15	-0.436 ± 0.14
AGCAAGCAAUAUUACGACAG	-2.65 ± 0.14	-1.45 ± 0.15
AGCAAGCAAUAUUACGCCAU	-3.14 ± 0.18	-1.63 ± 0.13
AGCAAGCAAUAUUACGCCCC	0.415 ± 0.15	-0.728 ± 0.18
AGCAAGCAAUAUUACGCUCC	-3.78 ± 0.4	-1.58 ± 0.39
AGCAAGCAAUAUUACGCUGC	-1.58 ± 0.2	-3.1 ± 0.31
AGCAAGCAAUAUUACGCUUA	-2.94 ± 0.15	-1.71 ± 0.11
AGCAAGCAAUAUUACGGAAU	-3.44 ± 0.15	-0.957 ± 0.093
AGCAAGCAAUAUUACGGCUA	-1.07 ± 0.088	-0.869 ± 0.093
AGCAAGCAAUAUUACGGGGA	-2.7 ± 0.14	-2.1 ± 0.14
AGCAAGCAAUAUUACGGUAC	-4.18 ± 0.2	-2.16 ± 0.16
AGCAAGCAAUAUUACGGUAU	-2.35 ± 0.075	-0.546 ± 0.068
AGCAAGCAAUAUUACGUAUA	-2.91 ± 0.15	-1.85 ± 0.15
AGCAAGCAAUAUUACGUAUC	-3.34 ± 0.26	-1.41 ± 0.2
